The text below walks through data of patent US20040248211A1, “ICAM-related protein” (priority 1992, published 2004).

One assay has as its target T1, ICAM-R on PBL (Homo sapiens, UniProt P32942).
T1 construct: endogenous in cells; host or cells: human peripheral blood leukocytes
T1 sequence (P32942 30-547): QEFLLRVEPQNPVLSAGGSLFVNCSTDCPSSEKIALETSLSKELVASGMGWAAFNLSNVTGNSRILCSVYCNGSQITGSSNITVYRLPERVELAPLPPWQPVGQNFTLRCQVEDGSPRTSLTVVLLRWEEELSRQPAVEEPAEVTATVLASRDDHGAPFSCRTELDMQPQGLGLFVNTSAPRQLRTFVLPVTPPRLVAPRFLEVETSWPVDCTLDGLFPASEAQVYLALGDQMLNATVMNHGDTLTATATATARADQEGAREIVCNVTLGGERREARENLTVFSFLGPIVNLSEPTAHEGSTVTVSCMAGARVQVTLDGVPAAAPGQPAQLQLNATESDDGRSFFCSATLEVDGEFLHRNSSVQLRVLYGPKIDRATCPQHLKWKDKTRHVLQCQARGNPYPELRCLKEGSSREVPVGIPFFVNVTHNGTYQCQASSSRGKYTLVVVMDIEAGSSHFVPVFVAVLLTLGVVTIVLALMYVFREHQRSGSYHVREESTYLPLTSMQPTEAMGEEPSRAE
The assay can be described thus: FACS-based competition assay. The conditions noted are these: 5 μg antibody; equivalent on SKW3. Format: binding. The method, then: In the assays, human peripheral blood leukocytes (PBL) obtained by Ficoll Hypaque centrifugation of normal peripheral blood were washed twice in ice cold FACS buffer (PBS containing 0.1% sodium azide and 1% bovine serum albumin) and 2×10^5 cells were incubated in triplicate polypropylene tubes with 5 μg of each of the following antibodies ICR-1.1, ICR-4.2, and control isotype IgG (Sigma). All tubes containing the first stage antibodies were then incubated for 30 minutes at 4° C. and washed twice in cold FACS buffer. To each triplicate tube, 5 μg of each of the following second stage antibodies were added: biotinylated-ICR-1.1, biotinylated-ICR-4.2, biotinylated-anti-rat CD4 (negative control). All second stage antibodies were bibtinylated according to standard procedures as described in Example 12 and all tubes were then incubated for an additional 30 minutes at 4° C. before washing twice in FACS buffer. […] Finally, all tubes were washed twice in FACS buffer and analyzed by flow cytometry (FACScan, Becton-Dickinson).
SKW3 cells were labelled with either 1 μg of antibody ICR-1.1 or ICR-4.2, washed in FACS buffer and incubated with 1 μg biotinylated-ICR-1.1 or biotinylated ICR-4.2. All tubes were then washed in FACS buffer, incubated with Strepavidin-phycoerythrin for an additional 30 minutes at 4° C. and analyzed by FACScan.

In assay [1] the test system is PBMC and CD4+ T-lymphocytes. The assay can be described thus: Costimulation of anti-CD3 induced lymphocyte proliferation. Format: cell-based, human. The conditions noted are these: anti-CD3 G19 0.001 μg/well; antibody 10 μg/well; 3 days. The method, then:
Because anti-ICAM-R antibodies with anti-CD3 antibodies costimulated early PBMC activation events, anti-ICAM-R antibodies were tested for the ability to costimulate lymphocyte proliferation induced by immobilized anti-CD3 antibody. In addition, to determine whether anti-ICAM-R antibodies costimulate T-lymphocytes in the absence of accessory cells, anti-ICAM-R antibodies were tested for their ability to costimulate proliferation of pure CD4^+ T-lymphocytes, isolated using negative'selection. To isolate CD4^+ cells PBMC were suspended in tissue culture medium, added to 75 ml tissue culture flasks (Corning) and incubated for 1 hour at 37° C., 5% CO2. Plastic nonadherent cells were then removed from the flask by gently rinsing once with PBS. The nonadherent cell fraction was suspended (10^7 cells/ml) in an antibody cocktail containing 1 μg/ml anti-CD8 antibody (Pharmingen, San Diego, Calif.), 1 μg/ml anti-CD19 (Becton Dickinson), 1 μg/ml anti-CD11b (Becton Dickinson) in 10% FBS-PBS (coating medium), and incubated for 1 hour at 4° C. Unbound antibody was removed by washing twice in coating medium. […] Lymphocyte proliferation was measured by ^3H-thymidine incorporation by the PMBC or CD4^+ cells. […]

Assay [2] concerns CD4+ T cells with allogeneic epidermal cells. The assay is described as follows: Langerhans cell alloantigen presentation to CD4+ T cells. The following applies: 50 μg antibody. Format: cell-based, human. The method, then: Blocking experiments were performed to determine whether the observed ICAM-R expression on Lcs was functionally important in antigen presentation. CD4^+ T cells were prepared from peripheral blood and 10^5 CD4^+ T cells were combined with 4×10^4 epidermal cells harvested from keratome biopsies of normal skin of an individual allogenic to the T cell donor. Proliferation was measured by ^3H thymidine uptake. Alloantigen presentation was unaffected by addition of 50 μg IgG1 isotype control. […] Inhibition was 73% of that produced by addition of anti-LFA-1 (anti-CD11a) antibody.

B1: ICR-1.1: anti-ICAM-R monoclonal antibody, IgG2a, domain 1, ATCC HB 11053 (antibody, V domains shown)
VH: QVQLQQSGAELAKPGASVKMSCKASGYTFTVYWMHWVKQRPGQGLEWIGYINPNTDYTEYNQRFQDKATLTADKSSSTAYMQLSSLTSEDSAVYYCARWGGNSYGLDYWGQGTSVTVSS
VL: QIVLTQSPALMSASPGEKVTMTCSASSSVSYIYWYQQKPRSSPKPWIYLTSNLASGVPARFSGSGSGASYSLTISIMEAEDAATYYCQQWKSIPLTFGAGTKLELK
Take B1: in the assay with ICAM-R on PBL, the “blocking of biotinylated-ICR-1.1 binding” value was “did block binding of biotinylated-ICR-1.1” and the “blocking of biotinylated-ICR-4.2 binding” value is on record as “did not block binding of monoclonal antibody ICR-4.2”. The “proliferative response to immobilized anti-CD3” value in assay [1] was “increased the PBMC and purified CD4^+ cell response to anti-CD3”.

B2: ICR-8.1: anti-ICAM-R monoclonal antibody, IgG1, domain 1, ATCC HB 11232 (antibody, V domains shown)
VH: EIQLQQTGPELVKPGASVKISCKASGYSFTDCIILWVKQSHGKGLEWIGKINPYFGTTTYNLKFKGKATLTVDKSSSTAHMQLNSLTSEDSAVYYCARKEAYPDAMDYWGQGTSVTVSS
VL: DAVMTQTPLSLPVSLGDQASISCRSSQSLVHSNGDTYLHWYLQKPGQSPQLLIYKVSNRFSGVPDRFSGSGSGTDFTLKLSRVEAEDLGVYFCSQSTHVPYTFGGGTKLEIK
For the molecule B2, in assay [2], the “inhibition relative to that produced by anti-LFA-1 (anti-CD11a) antibody” value is given as 73% and the “reduction in Lcs alloantigen-driven proliferative response of T cells” value is recorded as 47%.
